{"source": "patent US12662540B2", "about": "“Compositions and methods for inhibition of MICA/B shedding” (DANA-FARBER CANCER INSTITUTE, INC., priority 2017, dated 2026)", "molecules": {"B1": {"name": "7C6: monoclonal antibody from mice immunized with recombinant MICA α3 domain; parental mIgG2b; VH SEQ ID NO: 7, VL SEQ ID NO: 8 (antibody)", "VH": "QIQLVQSGPELKKPGETVKVSCKASGYMFTNYAMNWVKQAPEKGLKWMGWINTHTGDPTYADDFKGRIAFSLETSASTAYLQINNLKNEDTATYFCVRTYGNYAMDYWGQGTSVTVSSAKTTAPSVYPLAPVCGDTTGSSVTLGCLVKGYFPEPVTLTWNSGSLSSGVHTFPAVLQSDLYTLSSSVTVTSS", "VL": "DIQMTQTTSSLSASLGDRVTISCSASQDISNYLNWYQQKPDGTVKLLIYDTSILHLGVPSRFSGSGSGTDYSLTISNLEPEDIATYYCQQYSKFPRTFGGGTTLEIK", "modifications": "mAb 7C6 heavy chain amino acid sequence; mAb 7C6 light chain amino acid sequence"}}, "key": {"[1]": {"tested_on": "subcutaneous B16F10 tumors", "test": "Subcutaneous B16F10-MICA model", "assay_type": "in vivo, mice (C57BL/6, Igh−/−)", "description": "C57BL/6 mice were injected subcutaneously with 1×10^6 B16F10 cells that had been transduced with different lentiviral vectors (ZsGreen reporter). Five days later, treatment was initiated with 7C6-mIgG2a, 7C6-mIgG2b-DANA, or isotype control (C1184) antibodies (200 μg/mouse). Treatment was continued as indicated in the relevant figures. For antibody blockade, Igh^−/− mice were given 200 μg/mouse of anti-NKG2D (HMG2D) or control IgG (MOPC-21) on days −1, 0, 5, 9, 14, and 19. Mice were bled on day 9. Tumor size was monitored with a digital caliper and the tumor area was calculated by multiplying the two largest diameters. To minimize suffering, the end point was defined as a tumor size of 200 mm2.\nC57BL/6 mice were injected subcutaneously with 1×10^6 B16F10 cells that had been transduced with different lentiviral vectors (ZsGreen reporter). Five days later, treatment was initiated with 7C6-mIgG2a, 7C6-mIgG2b-DANA, or isotype control (C1184) antibodies (200 μg/mouse). Treatment was continued as indicated in the relevant Figures. For antibody blockade, Igh^−/− mice were given 200 μg/mouse of anti-NKG2D (HMG2D) or control IgG (MOPC-21) on days −1, 0, 5, 9, 14, and 19. Mice were bled on day 9. Tumor size was monitored with a digital caliper and the area was calculated by multiplying the two largest diameters. To minimize suffering, the end point was defined as the time point when tumors reached a size of 200 mm^2.\nIgh^−/− mice were injected subcutaneously with 1×10^6 B16F10-MICA cells that had been transduced with a ZsGreen-based lentiviral vector that drives MICA expression. On days 5, 7 and 9 after tumor cell inoculation, mice were treated with 200 μg 7C6-mIgG2a or isotype control antibodies. On days 7 and 14, sets of mice were euthanized and tumors were removed. Tumors were then mechanically dissociated to preserve MICA integrity on the cell surface. Next, Fc receptors were blocked using Mouse True Stain FcX (Biolegend). Cells were subsequently stained with a PE-conjugated anti-mouse IgG antibody (Poly4053, Biolegend). Cells were then washed and stained with APC-conjugated anti-MICAS antibody (6D4), PE-Cγ7-CD45.2 and Zombie NIR (all from Biolegend). Viable tumor cells were identified by flow cytometry based on size, ZsGreen fluorescence and absence of CD45.2 expression. Samples were examined using a Sony Spectral Analyzer or Beckman Coulter CytoFLEX, and data were analyzed by FlowJo."}, "human NK cells": {"tested_on": "human NK cells", "test": "Intracellular interferon-γ production by NK cells co-cultured with tumor cells", "assay_type": "cell-based", "settings": "co-culture with tumor cells, antibody 10 μg/ml", "description": "NK cells were co-cultured for 6 hours at a ratio of 5:1 with tumor cells in the presence of Brefeldin-A (Biolegend). After the incubation time, Fc receptors were blocked, cells stained with NK cell markers, stained further with a dead cell marker (Zombie Yellow, Biolegend), and subsequently processed for intracellular interferon-γ labeling. Briefly, cells were fixed with BD Cytofix/Cytoperm™ Fixation and Permeabilization Solution (BD Pharmingen), permeabilized with Permeabilization Wash Buffer (Biolegend), and stained with APC-conjugated anti-human interferon-γ (4S.B3, Biolegend) or appropriate isotype control. Fluorescence spectra were acquired using a LSR Fortessa flow cytometer and analyzed by FlowJo."}, "CT26-MICA": {"tested_on": "CT26-MICA", "test": "CT26 metastasis model", "assay_type": "in vivo, Balb/c mice", "settings": "antibody days 1, 2, 7, 14; count day 21", "description": "(§1) Balb/c wild type mice were injected intravenously with 1×10^6 CT26-MICA, and treated with 7C6-mIgG2b or MPC-11 (isotype) administered intraperitoneally on days 1, 2, 7, and 14. Euthanasia was performed on day 21, followed by lung perfusion with 30% Indian ink through the trachea and fixation in Fekete's fixative. That procedure stains the lungs in black, while the metastases remain white, enabling counting of metastases under a stereomicroscope (24).\nas §1, with “stereomicroscope.” for “stereomicroscope (24).”"}, "A375 cells": {"tested_on": "A375 cells", "test": "NK cell cytotoxicity assay (51Cr release), human NK cells against human tumor cells", "assay_type": "cell-based", "settings": "human NK cells; antibody added at time of killing assay (10 μg/ml, 66.7 nM)", "description": "Human NK cells were isolated from fresh leukapheresis blood collars that had been generated by Brigham & Women's Hospital, Boston, from healthy donors. Samples were diluted with an equal volume of PBS and blood mononuclear cells were isolated by Ficoll density gradient centrifugation. Cells were washed with PBS, and NK cells were isolated by negative selection using the Human NK Cell Isolation Kit (130-092-657, Miltenyi Biotech) using an autoMACS system (Miltenyi Biotech). Enriched NK cells (purity of 50-90%) were then incubated with anti-CD56 (PE or APC conjugated) and anti-CD3 (FITC or Pacific Blue conjugated) (Biolegend) and sorted using a BD FACS Aria. Following sorting, NK cell purity was ˜99%. These cells were cultured for twelve hours in complete RPMI media supplemented with 300-1000 U/ml of recombinant human IL-2 (BD Pharmingen).\nTarget cells were labeled for 1 hour with 100 μCi of ^51[Cr] per 2×10^6 cells in 0.2 ml of media. Subsequently, cells were washed and plated in V-bottom 96-wells plates (5,000 target cells per well). To determine the experimental release, NK cells were added in an equal volume, but at different ratios. To determine maximum and spontaneous release, target cells were mixed with an equal volume of 2% Triton-X100 in PBS or an equal volume of media, respectively. Antibodies were added at a final concentration of 10 μg/ml.\nFor experiments shown in FIGS. 1E, 10, and 13E antibodies were added at the time of the killing assay. For FIGS. 3A-B, antibodies were added to tumor cells 48 hours prior to labelling with ^51[Cr] to inhibit MICAS shedding. The isotype control antibody for assays with human NK cells was recombinant human IgG1 Fc (BE0096, BioXcell). […] At the end of the incubation period, plates were centrifuged (2000 rpm, 5 minutes), part of the supernatant was collected, mixed with scintillation fluid, and radioactivity was quantified using a MicroBeta2 reader (Perkin Elmer). Specific killing was calculated using the following formula: 100×(Experimental release−Spontaneous release)/(Maximum release−Spontaneous release)."}}, "data": [{"molecule": "B1", "values": [{"measurement": "subcutaneous tumor growth inhibition, Igh−/− versus wild-type mice", "setting": "[1]; B16F10-MICA, 200 μg", "result": "inhibited growth of subcutaneous B16F10-MICA melanomas more effectively in B cell deficient mice"}, {"measurement": "therapeutic activity against subcutaneous tumors that secrete MICA or lack NKG2D ligands", "setting": "[1]; Igh−/− mice", "result": "no therapeutic effect was observed"}, {"measurement": "therapeutic activity against subcutaneous tumors expressing full-length MICA or MICB", "setting": "[1]; Igh−/− mice, treatment from day 5", "result": "restricted to subcutaneous tumors that expressed full-length MICA or MICB"}, {"measurement": "receptor requirement for inhibition of subcutaneous tumor growth", "setting": "[1]; NKG2D blockade, DANA mutant", "result": "NKG2D and CD16 Fc receptors were also both required for inhibition of subcutaneous tumor growth"}, {"measurement": "clearance of secreted MICA protein (serum, day 9)", "setting": "[1]; tumors secreting MICA", "result": "did not promote clearance of secreted MICA protein"}, {"measurement": "MICA and MICB shedding (serum, day 9)", "setting": "[1]; tumors with full-length MICA or MICB", "result": "inhibited MICA and MICB shedding"}, {"measurement": "IFNγ (cytokine) production by human NK cells", "setting": "human NK cells", "result": "increases NK cell cytotoxicity and cytokine production"}, {"measurement": "activity against CT26-MICA lung metastases", "setting": "CT26-MICA", "result": "demonstrated efficacy in a lung metastasis model"}, {"measurement": "NK cell mediated cytotoxicity against human tumor cells", "setting": "A375 cells", "result": "increases NK cell cytotoxicity"}]}]}
